Target: recombinant human PD-L1-Fc fusion protein (dimeric form) (human)
Experiment: SEC; SE-HPLC of the two bought PD-L1 ligands (Supplementary Figure S1); conditions not given

stoichiometry N: 2
Substance: recombinant human PD-L1-Fc fusion protein (dimeric form)

Reference: paper PMC8386121
